In paper PMC12119571, “The Porphyromonas gingivalis RNA-binding protein is required for growth in high levels of zinc and persistence with host cells”:

Experiments:
[1] = system: RbpPg1 (Halo) (Porphyromonas gingivalis W83); test: pull-down of total RNA, RNA-seq; details: EMSA: LightShift Chemiluminescent RNA EMSA kit, on ice 30 min, TBE 10% gel at 4 C (buffer in Suppl. Tables 3-5, not in the material); His pulldown: 1 h at 4 C …
[2] = target: T1, RbpPg1 (Porphyromonas gingivalis W83) (UniProt Q7MWI3); test: pull-down of total RNA, RNA-seq; details: EMSA: LightShift Chemiluminescent RNA EMSA kit, on ice 30 min, TBE 10% gel at 4 C (buffer in Suppl. Tables 3-5, not in the material); His pulldown: 1 h at 4 C …
T1 sequence: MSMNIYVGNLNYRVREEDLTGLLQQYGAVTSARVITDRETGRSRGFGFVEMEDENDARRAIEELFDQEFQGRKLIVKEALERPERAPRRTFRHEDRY

RbpPg1 = target: T2, RbpPg1 (Porphyromonas gingivalis W83, UniProt Q7MWI3 1-97); test: EMSA; shift reduced by unlabeled IRE RNA; EMSA: LightShift Chemiluminescent RNA EMSA kit, on ice 30 min, TBE 10% gel at 4 C (buffer in Suppl. Tables 3-5, not in the material); His pulldown: 1 h at 4 C; details: protein: recombinant; tags: His-tag (pET30a, NcoI/XhoI); label: 3' biotin; IRE stem loop (hairpin)
T2 sequence: T1 sequence

Row | Molecule | binding signal (fold enrichment over HU-beta) [1] | binding signal (fold enrichment over HU-beta) [2] | binding result (RbpPg1)
1 | PG2090 zinc efflux transcript | 639 | 71.3 | 
2 | UCCUGCUUCAACAGUGCUUGGACGGAAC (structured_RNA) [IRE control RNA (LightShift kit)] |  |  | binds
